Experimental data as given in patent US9018171B2, “Uses of an immunomodulatory protein (GMI) from Ganoderma microsporum” (Mycomagic Biotechnology Co., Ltd., priority 2010, dated 2015).
Read-outs that look alike come from different tables or passages of the source.

What was measured:
Akt = experiment: Western blotting, EGF-induced phosphorylation; format: cell-based, human; details: A549 cells, pretreated 8 h, EGF 10 minutes
Description: (§1) A549 cells (5×10^5 cells/60 mm) were pretreated with various concentrations of GMI (4, 16 μg/ml) or AG1478 (EGFR inhibitors) for 8 hours prior to incubation for 10 minutes with EGF (as indicated). Cell lysates were subject to immunoblotting with phospho-specific EGFR (Y1068) (A and B), anti-phospho-AKT (A), anti-AKT (A), anti-phospho-GSK3β (A) or anti-phospho-STAT3 antibodies (B). Protein loading was determined by Western blotting against β-actin (A and B).
(§2) Total cell lysates were prepared in RIPA buffer (100 μl in 60 mm in dish). Fifty μg of lysate were loaded onto an 8% polyacrylamide gel and analyzed by SDS gel electrophoresis. After transfer to PVDF (Amersham), blots were blocked with 5% skim milk in TBS (10 mM Tris-CL pH7.5, 150 mM NaCl) containing 0.2% Tween-20. Blots were probed with antibodies (at their recommended dilutions) in 5% skim milk in TBS overnight at 4° C. Following detection with the appropriate horseradish-peroxidase conjugated secondary antibody (Cell Signaling), blots were developed by enhanced chemiluminescence according to the manufacturer's directions (Perkin Elmer Life Sciences). All experiments were performed in duplicate.
(§3) To assess whether GMI mediates and/or inhibits phosphorylation of Akt and Stat3, the invention investigated the effect of GMI on the phosphorylation status of Akt and Stat3 in A549 cells treated with various concentrations of GMI for 8 h.

EGFR = experiment: Western blotting, EGF-induced phosphorylation; format: cell-based, human; details: A549 cells, pretreated 8 h, EGF 10 minutes
Description: as §1, §2, §3

Stat3 = experiment: Western blotting, EGF-induced phosphorylation; format: cell-based, human; details: A549 cells, pretreated 8 h, EGF 10 minutes
Description: as §1, §2, §3

K-562 = experiment: NCI60 in vitro screening, Leukemia; format: cell-based
SR = experiment: NCI60 in vitro screening, Leukemia; format: cell-based
NCI-H522 = format: cell-based
COLO 205 = experiment: NCI60 in vitro screening, Colon Cancer; format: cell-based
SF-268 = experiment: NCI60 in vitro screening, CNS Cancer; format: cell-based
SK-MEL-5 = experiment: NCI60 in vitro screening, Melanoma; format: cell-based
OVCAR-4 = experiment: NCI60 in vitro screening, Ovarian Cancer; format: cell-based
SK-OV-3 = experiment: NCI60 in vitro screening, Ovarian Cancer; format: cell-based
CAKI-1 = experiment: NCI60 in vitro screening, Renal Cancer; format: cell-based
UO-31 = experiment: NCI60 in vitro screening, Renal Cancer; format: cell-based
MDA-MB-231/ATCC = experiment: NCI60 in vitro screening, Breast Cancer; format: cell-based
U251 = experiment: NCI60 in vitro screening, CNS Cancer; format: cell-based; details: U251, one dose
A549/D16 = experiment: MTT assay, drug sensitivity; format: cell-based, human; details: A549/D16, 48 h, MTT
Description: (§4) A549 cell line and resistant A549 cell sublines (A549/D16, A549/D32 and A549/V16) (5000 cells/well of 96-well plate) were treated with increased doses concentrations (μM) of GMI from Ganoderma microsporum, docetaxel, vincristine and doxorubicin for 48 h, respectively. Cell viability was measured by MTT assay and the results are presented as the calculated cell growth inhibitory ratio. Experiments were repeated three times.

A549/V16 = experiment: MTT assay, drug sensitivity; format: cell-based, human; details: A549/V16, 48 h, MTT
Description: as §4

A549 = experiment: MTT assay, drug sensitivity; format: cell-based, human; details: A549, 48 h, MTT
Description: as §4

B1: GMI: immunomodulatory protein from Ganoderma microsporum, amino acid sequence SEQ ID NO: 3, manufactured by Mycomagic Biotechnology Co., Ltd. (protein, listed as Ganoderma microsporum)
chain: MSDTALIFTLAWNVKQLAFDYTPNWGRGRPSSFIDTVTFPTVLTDKAYTYRVVVSGKDLGVRPSYAVESDGSQKINFLEYNSGYGIADTNTIQVYVIDPDTGNNFIVAQWN
Akt
  EGF-induced activation (phosphorylation) of Akt: significantly inhibits
EGFR
  EGF-induced activation (phosphorylation) of EGFR: significantly inhibits
Stat3
  EGF-induced activation (phosphorylation) of Stat3: little effect
K-562; K-562
  TGI: >1.25E2
K-562; K-562, Log10 Concentration 0.1
  Percent Growth: 101%
K-562; K-562, Log10 Concentration 1.1
  Percent Growth: 97%
K-562; K-562, Log10 Concentration 2.1
  Percent Growth: 90%
K-562; K-562, Log10 Concentration −0.9
  Percent Growth: 98%
K-562; K-562, Log10 Concentration −1.9
  Percent Growth: 96%
K-562; K-562, one dose
  Growth Percent: 125.37%
SR
  TGI: >1.25E2
SR; Log10 Concentration 0.1
  Percent Growth: 96%
SR; Log10 Concentration 1.1
  Percent Growth: 17%
SR; Log10 Concentration 2.1
  Percent Growth: 1%
SR; Log10 Concentration −0.9
  Percent Growth: 96%
SR; Log10 Concentration −1.9
  Percent Growth: 98%
SR; in µg/mL
  GI50: 4.79E0
SR; one dose
  Growth Percent: 32.47%
NCI-H522; NCI-H522
  TGI: 1.25E2
NCI-H522; NCI-H522, Log10 Concentration 0.1
  Percent Growth: 105%
NCI-H522; NCI-H522, Log10 Concentration 1.1
  Percent Growth: 98%
NCI-H522; NCI-H522, Log10 Concentration 2.1
  Percent Growth: 53%
NCI-H522; NCI-H522, Log10 Concentration −0.9
  Percent Growth: 100%
NCI-H522; NCI-H522, Log10 Concentration −1.9
  Percent Growth: 95%
NCI-H522; NCI-H522, one dose
  Growth Percent: 125.90%
COLO 205; COLO 205
  TGI: >1.25E2
COLO 205; COLO 205, Log10 Concentration 0.1
  Percent Growth: 100%
COLO 205; COLO 205, Log10 Concentration 1.1
  Percent Growth: 95%
COLO 205; COLO 205, Log10 Concentration 2.1
  Percent Growth: 95%
COLO 205; COLO 205, Log10 Concentration −0.9
  Percent Growth: 98%
COLO 205; COLO 205, Log10 Concentration −1.9
  Percent Growth: 95%
COLO 205; COLO 205, one dose
  Growth Percent: 105.56%
SF-268; SF-268
  TGI: >1.25E2
SF-268; SF-268, Log10 Concentration 0.1
  Percent Growth: 108%
SF-268; SF-268, Log10 Concentration 1.1
  Percent Growth: 52%
SF-268; SF-268, Log10 Concentration 2.1
  Percent Growth: 4%
SF-268; SF-268, Log10 Concentration −0.9
  Percent Growth: 101%
SF-268; SF-268, Log10 Concentration −1.9
  Percent Growth: 95%
SF-268; SF-268, one dose
  Growth Percent: 39.72%
SF-268; SF-268, in µg/mL
  GI50: 2.02E1
SK-MEL-5; SK-MEL-5
  TGI: 4.26E1
SK-MEL-5; SK-MEL-5, Log10 Concentration 0.1
  Percent Growth: 103%
SK-MEL-5; SK-MEL-5, Log10 Concentration 1.1
  Percent Growth: 94%
SK-MEL-5; SK-MEL-5, Log10 Concentration 2.1
  Percent Growth: −83%
SK-MEL-5; SK-MEL-5, Log10 Concentration −0.9
  Percent Growth: 101%
SK-MEL-5; SK-MEL-5, Log10 Concentration −1.9
  Percent Growth: 101%
SK-MEL-5; SK-MEL-5, one dose
  Growth Percent: 83.26%
SK-MEL-5; SK-MEL-5, in µg/mL
  GI50: 2.22E1
  LC50: 8.17E1
OVCAR-4; OVCAR-4
  TGI: >1.25E2
OVCAR-4; OVCAR-4, Log10 Concentration 0.1
  Percent Growth: 102%
OVCAR-4; OVCAR-4, Log10 Concentration 1.1
  Percent Growth: 107%
OVCAR-4; OVCAR-4, Log10 Concentration 2.1
  Percent Growth: 62%
OVCAR-4; OVCAR-4, Log10 Concentration −0.9
  Percent Growth: 102%
OVCAR-4; OVCAR-4, Log10 Concentration −1.9
  Percent Growth: 103%
OVCAR-4; OVCAR-4, one dose
  Growth Percent: 98.08%
SK-OV-3; SK-OV-3
  TGI: >1.25E2
SK-OV-3; SK-OV-3, Log10 Concentration 0.1
  Percent Growth: 107%
SK-OV-3; SK-OV-3, Log10 Concentration 1.1
  Percent Growth: 94%
SK-OV-3; SK-OV-3, Log10 Concentration 2.1
  Percent Growth: 55%
SK-OV-3; SK-OV-3, Log10 Concentration −0.9
  Percent Growth: 103%
SK-OV-3; SK-OV-3, Log10 Concentration −1.9
  Percent Growth: 103%
SK-OV-3; SK-OV-3, one dose
  Growth Percent: 89.18%
CAKI-1; CAKI-1
  TGI: 7.29E1
CAKI-1; CAKI-1, Log10 Concentration 0.1
  Percent Growth: 98%
CAKI-1; CAKI-1, Log10 Concentration 1.1
  Percent Growth: 47%
CAKI-1; CAKI-1, Log10 Concentration 2.1
  Percent Growth: −14%
CAKI-1; CAKI-1, Log10 Concentration −0.9
  Percent Growth: 100%
CAKI-1; CAKI-1, Log10 Concentration −1.9
  Percent Growth: 100%
CAKI-1; CAKI-1, one dose
  Growth Percent: 96.04%
CAKI-1; CAKI-1, in µg/mL
  GI50: 1.08E1
UO-31; UO-31
  TGI: 2.65E1
UO-31; UO-31, Log10 Concentration 0.1
  Percent Growth: 119%
UO-31; UO-31, Log10 Concentration 1.1
  Percent Growth: 38%
UO-31; UO-31, Log10 Concentration 2.1
  Percent Growth: −77%
UO-31; UO-31, Log10 Concentration −0.9
  Percent Growth: 102%
UO-31; UO-31, Log10 Concentration −1.9
  Percent Growth: 97%
UO-31; UO-31, one dose
  Growth Percent: 14.01%
UO-31; UO-31, in µg/mL
  GI50: 8.79E0
  LC50: 7.22E1
MDA-MB-231/ATCC
  TGI: 3.65E1
MDA-MB-231/ATCC; Log10 Concentration 0.1
  Percent Growth: 93%
MDA-MB-231/ATCC; Log10 Concentration 1.1
  Percent Growth: 41%
MDA-MB-231/ATCC; Log10 Concentration 2.1
  Percent Growth: −47%
MDA-MB-231/ATCC; Log10 Concentration −0.9
  Percent Growth: 96%
MDA-MB-231/ATCC; Log10 Concentration −1.9
  Percent Growth: 103%
MDA-MB-231/ATCC; in µg/mL
  GI50: 8.34E0
MDA-MB-231/ATCC; one dose
  Growth Percent: 23.69%
U251
  Growth Percent: 69.04%
A549/D16
  IC50 ± SD: 11.37 ± 0.55 µg/mL
A549/V16
  IC50 ± SD: 13.10 ± 0.17 µg/mL
A549
  IC50 ± SD: 15.73 ± 0.42 µg/mL
